Laboratory results from the DeepSol protein solubility set.

Assay: soluble on expression in E. coli; label from the status in PepcDB or PDB records

MVRVIIKGGVWKNTEDEILKAAIMKYGKNQWSRIASLLHRKSAKQCKARWFEWLDPGIKKTEWSREEDEKLLHLAKLMPTQWRTIAPIVGRTSAQCLERYEHLLDEAQRKAEGLDEEATETRKLKPGEIDPTPETKPARPDPIDMDDDELEMLSEARARLANTQGKKAKRKARERQLSDARRLASLQKRREMRAAGLAFARKFKPKRNQIDYSEEIPFEKHVPAGFHNPSEDRYVVEDANQKAIEDHQKPRGREIEMEMRREDREKLKKRKEQGEADAVFNIKEKKRSKLVLPEPQISDRELEQIVKIGHASDSVRQYIDGTATSGLLTDYTESARANAVAARTMRTPMLKDTVQLELENLMALQNTESALKGGLNTPLHESELGKGVLPTPKVAATPNTVLHAIAATPGTQSQFPGSTPGGFATPAGSVAATPFRDQMRINEEIAGSALEQKASLKRALASLPTPKNDFEVVGPDDDEVEGAVEDESNQDEDGWIEDASERAENKAKRNAENRVRNMKMRSQVIQRSLPKPTKVNEQATRATNSSADDMVKAEMSKLLAWDVDNKPPSVIYSREELDAAADLIKQEAESGPELNSLMWKVVEQCTSEIILSKDKFTRIAILPREEQMKALNDEFQMYRGWMNQRAKRAAKVEKKLRVKLGGYQAIHDKLCKKYQEVTTEIEMANIEKKTFERLGEHELKAINKRVGRLQQEVTTQETREKDLQKMYSKLSNKQWKLSQIEIHDAASTTSAPITY
soluble on expression in E. coli: not soluble

MSLERSLSMELVRVTEAAALASARWMGRGKKDEADEAATSAMRDVFDTVPMKGTVVIGEGEMDEAPMLYIGEKLGNGYGPRVDVAVDPLEGTNILASGGWNALTVIAVADHGTLLNAPDMYMQKIAVGPEAVGCIDIEAPVIDNLKAVAKAKNKDVEDVVATILNRERHAKIISELREAGARIKLINDGDVAGAINTAFDHTGVDILFGSGGAPEGVLSAVALKALGGEIIGKLLPQSEEEITRCHKMGLDLSKVLRMEDLVKGDDAIFAATGVTDGELLKGVQFKGSVGTTESLVIRAKSGTVRFVDGRHSLKKKPNLVIRPEGGSHHHHHH
soluble on expression in E. coli: soluble

MGSDKIHHHHHHMMDRQFQHAMLPQPTHDELARQNFVQSLKTHIFRNISPGNKVVYEKLAKPKFEQEHQRPPQNRHEIREVMQHESYYRWTSALKRIHQEILWDAVNTSVGRQLPELIERAKDRGGELGTLTLDPNFQIPNYQKAVDIHCMPGGYHSEFTGGDVAAGATYDRGAYLYGLGWLGPLNNDMGLSIVQNYLLPEYPDFRPRKILDMGCSVGNSTLPYVDAYPDAEVHAIDVGAPMLRYGHARAEALGKRVHFWQQNAEHTNFPDESFDLVVSHILLHEIPPSAVRKVMQESYRLLAPGGIMLHLEAPLYRHLDVYTQFIFDWETANNNEPFWSAVRDLDLVTLATEAGFAPDKTFEKFVPNGAWKAKVTNGLFQNGNSGSLNTWFVVAATK
soluble on expression in E. coli: not soluble

SLEEYHKWYYGNLVWTKTTYMGINCWKSVSDMWNYQEILSELQPSLVIEFGTRYGGSAVYFANIMRQIGQPFKVLTVDNSHKALDPRARREPDVLFVESSSTDPAIAEQIQRLKNEYPGKIFAILDSDHSMNHVLAEMKLLRPLLSAGDYLVVEDSNINGHPVLPGFGPGPYEAIEAYEDEFPNDYKHDAERENKFGWTSAPNGFLIRN
soluble on expression in E. coli: soluble

MGSDKIHHHHHHMKLTILTDNRAAPGLTCEHGFAVLIETGGKRILFDTGQLTAIDANCRALGIDLSDIDIIVLSHGHYDHTGNLADVLRIADRATLYLHPSALIERYSIRNDKPKPIDMPETAKQAINGLPKERVVWVTEPTRLTDGAFLTGPVPRQTTFEDTGGPFFFDPDGKTPDPIEDDLSLWIEKPEGLIVLAGCCHAGIVNTLDYIESITGQKRIATLIGGMHLSAASPERLNRTVASLANRDISRLIACHCTGQAAVERFSKELPYPVEAGYAGMVVESANE
soluble on expression in E. coli: not soluble

MIDYTAAGFTLLQGAHLYAPEDRGICDVLVANGKIIAVASNIPSDIVPNCTVVDLSGQILCPGFIDQHVHLIGGGGEAGPTTRTPEVALSRLTEAGVTSVVGLLGTDSISRHPESLLAKTRALNEEGISAWMLTGAYHVPSRTITGSVEKDVAIIDRVIGVKCAISDHRSAAPDVYHLANMAAESRVGGLLGGKPGVTVFHMGDSKKALQPIYDLLENCDVPISKLLPTHVNRNVPLFEQALEFARKGGTIDITSSIDEPVAPAEGIARAVQAGIPLARVTLSSDGNGSQPFFDDEGNLTHIGVAGFETLLETVQVLVKDYDFSISDALRPLTSSVAGFLNLTGKGEILPGNDADLLVMTPELRIEQVYARGKLMVKDGKACVKGTFETA
soluble on expression in E. coli: soluble

MSLDPIEFIQKSASSIASTMHKLKLKYNPFSEKPIRGNTKFFVGRVSELREIGEILGSALHGSVANAAIVGTKGIGKSSMLNIIYYATKKQGHWVVEMTASQVTPRQFLIQLLYNILTENIITMSGTIKSDYMEHSSRILDMYRKLNNYGDKVPIHYPRERIERDLEYLINEVKSPDKLCIILIDEADQFAKKSCLSLLQFFHSFLYEEGILTFMAGSPTLMDDLTKISPPIKDRIPKIINMPPLSKDESYDLIRRRLEDAHIDGAEEFEPFTEEAIHKIVEECDGIPRKIIMTCSESISIAIRKGLTKIDEKVVKEAMHSLGISVGHQILNHLTPAQSEIVRAMAELGGSATVTQLAEYLKKSPSTIGTHLSDIYEMGYIYKEREGNNVYYKLSKELRDVLIGEDDEGHHHHHH
soluble on expression in E. coli: soluble

GMKTIIRQPQLYRFLKYCNESNLDKTVLDCGAGGDLPPLSIFVEDGYKTYGIEISDLQLKKAENFSRENNFKLNISKGDIRKLPFKDESMSFVYSYGTIFHMRKNDVKEAIDEIKRVLKPGGLACINFLTTKDERYNKGEKIGEGEFLQLERGEKVIHSYVSLEEADKYFKDMKVLFKEDRVVERINDGLKIKQGYVDYIAEKFSKSIL
soluble on expression in E. coli: soluble

MGSDKIHHHHHHMNSKNPRTTIPAPLQSILSAIPLFAPLPPDDINTLSKLIEIQVFPKNRTILHEADTANYMYLVLAGKVRVVQHSNDGTEQVLAIHRKGAFFGEMALLDGRTSPATLIAHEDATVGLIARTAFENQILTNDRMLRQIISVLCSRLRESWFLMKLSRFSSAEQKVRGVLKYLGTQYGVDDSRGKILSIKLTHRTVAGYASVSRETASRILGRFSRAGEIELLASRRMLLKPTLFLNPPFL
soluble on expression in E. coli: not soluble

MDLEFGRFPIFSILEDMLEAPEEQTEKTRNNPSRAYMRDAKAMAATPADVIEHPDAYVFAVDMPGIKGDEIQVQIENENVLVVSGKRQRDNKENEGVKFVRMERRMGKFMRKFQLPDNADLEKISAACNDGVLKVTIPKLPPPEPKKPKTIQVQVA
soluble on expression in E. coli: soluble

MGKRKAFIDKKASQSFRLVPDNRERSERFKPTQEHLEEQQKYGVYYDDDYDYLQHMRAVNEPMKLENVHEEVEKTTIKTSGSSAFPPAPPLFGLVGALKKPEFFDEDVANALEEVTDDRNTGELEDNFITLAGGLLDERTTVYRSTRRGEDSEEEEDDDEDDEMYDDYNDDELFGEEAVGEIRVERADQRVIDNAFEELMDREYNTDQIGELDGDDYDVGGALEPNAGRLHKLINDKGPSNAEYDEELAKHYVRERMRLIEEGVIKDKEEYEIVEVDEGTNKKMKWDCESFATQYTNIYNHPTLIKEPRGLSRKALKRFDKAVEEMDIAEEDEDDDEDMEDDDDKESVFSTVSTFRPKNETPEQRSLRKKAVKEARKLRRVEKKANKTMFAEEKRKLAKGRIGQIKARPI
soluble on expression in E. coli: not soluble

MGSDKIHHHHHHMLTKERTLQYFHEYFSEWIEIYKRGAVRPVTYQKYLMTLQRLTELSPNLKICELDKRKYQTLLNDYAKTHERQTTMDFHHHLKSAILDAMDEGLLTIDPTRKVIIKGKPVSDKKNKFLSQFELQSLLKSLNLTDKPNWDWFILLVAKTGLRFSEALALTPKDFDFECQKVKISKTWNYKNAEGGFGETKNLSSKRTIQIDIQLNTQIERLSKDLADDEPIFVQGRVFNSTVNNRLKVLCKKAGVPIISAHCLRHTHASLLIFAGVSIASIAKRLGHSSISTTQETYLHIIKELESQDNDKIMSHLSMITQ
soluble on expression in E. coli: not soluble

WSQNEGKSVIPVQITKENSAYLADALLLDTSKEAQDAVENHSMMLSAKELFPVLETMKQIRQYGDSTDKNYGYRDEGSMFNSGNTAMYINGVWASKLIDEKIDACYAPFPGKNGSTIASSSVCLGYIVGNTGNQETMDASVEFLKYMLSEKVQKRILLETGQMPSSPKIHLEEYKEQIPRMCNAVEAIRGADRIIEVPDNLWTADQLENFRNQIMEVLNGTLDEEQFCTNLYQ
soluble on expression in E. coli: not soluble

MTMNHDDRLRNRYEACRSGMQELDMLRAKHTLLIQNLRSRLPIIPGSLDDVQTREKKTRDVFLDRFSLQSVDSGISSQNTISSTRSSTPEDFKTSNRHSNIYENSSTTMNYSTFRKMSLESTHSSVSHSMQNDVEKTSFAPPVITSRSCHRGAWKTSPQRIRPKSMFDSTTSNTEYLFSKPPRHPIDLTKERRSAFTVLNQSSKRHSSIEPSLPSTLSQLSLNDEAKTPQKAEVIRWNKQKADAMFRANVVYVSSTEQPTKPAPLRFSPARSPPVRRALPIELKPTQHFAQPCKIRSPKLNTKTVFAAKPIAVRPSISPKVAQRSTWLQSQPL
soluble on expression in E. coli: not soluble

MDRKGFLKSTMIATGSLLLGGAGICRFLNDKEPADGPFPRTIEKIHCGNMKKVLVIMSAGTKLGNTDRLTDAYIKGLVERGHSVTKVYLGSMRIEGCRGCGVCQRLAHQCAVRDGMQDIYPLFAECDTVVMASPLYFWTITSQLKAFIDRLYAISADDKYPQKDTVLLMTAGDDNENTFDQPKQYFRLLSQALGWNEVGIYCAGGCTGCEKLARQIDKVHLENVYKMGLEL
soluble on expression in E. coli: not soluble

MGSDKIHHHHHHAPFVFDQQSYRQDVQTLASDEFEGRGPLSQGETLTVEYLENAFKKMGLAPGFGDSYRQSVPMAKITADQNMQLKVGELVFNNGSDFTARTEQIQPSITLDNSEIVFVGYGINAPEYGWNDYAGIDVKGKTVILMVNDPGFATQDPEVFKGNAMTYYGRWTYKYEEAARQGAKAVFIIHETAPAAYGWNVVQNSNTNTKYTLVDKEKNRSHIGVMGWVQHEVAQKIFTAAGLDYDKLKLTAAKPGFKSRSLDLKANLEVKNDIELATSYNVAGLLPGKTRPDEWLVMHAHWDHLGKTVHEDQTRIYNGAVDNASGVAGVLQLARHFKDLSATQPPARSMLFSAFTAEETGLIGAQYFAENSPVPTKQLVAFLNIDGMNVGKGVDYILRYGEGVSELENYLDKAAKAQGRWVKADPRPQNGLMFRSDHFALAKQGVPGLMFMSLGDTDPDYIAHKYHQGADDYDPSWTLGGVEQDLALISDILEKLANNNDWPKWLEASDFKTRRAQDGR
soluble on expression in E. coli: not soluble

MGSDKIHHHHHHMQSKSDIQRLLTIMERLRDPQTGCPWDKAQSYQTIVPFTLEEAFEVADTIERGALDELPGELGDLLFQVIFYCQLGKEQGRFDFDQVVEKICTKLTERHPHVFGEMTQASSESVRETWESIKAKERKGRSLHSVLDDIPRSLPALTRAAKVQRRVATVGFDWNDLGPVVAKIHEEIDEVMVEVAAQDRDKMEDELGDLLFAVVNLARHLKLDPEQALRRATNKFEHRFRGVEALAAQSGKAMQEHSLTELDAYWEQVKRNDPLKG
soluble on expression in E. coli: not soluble

MAHHHHHHMLHCSREEVGELLIDSCKRSVGTSVELDTLLSNKNTSKVAPDATAATIMQVRMMYGKDDSGDLSYAEMTRLVEGLSSSKDLTERILKPFEDDNRHTIAFSEFAKVYSNAVSFKELGYVFQDLAGGQQTISRDTFASFVCDIQDEDWDAETLNEKLALMGCVGIDGITENNFVGYIMSPYFDFAMEKKLTGVYQDMDQIMCCYFISSSHNTYLTGDQLTSKSSAQMYKKGASRRVPVREAICRNGPHGEPIVCHGYTRTSCIAFEECVKMIRQYAFTASAYLVILSLGVHTSVEQQDKMAEILEEGLGSLLFWPPWGSNEKPTMAFSPNNLKNKILVKAKRGDFPAREPRVDKDDDATETDSMASTNNADYLKMKEARRKAGKDEVRVSAKLSAIVSIESSKYQGVKDLSYLKDKQPHHCSSYSERKGKAIVREAHNALVCINDTCLSRVFPAGSRIDSSNYRPLLYWVSGCQMVAINWQSSDTFGWRLNGCIFLDSGCCGYLLKPDYLRPVTCPDVAVPEYLRSLTVEVIWGFALPSAKQARGCRPVCDSFPRGP
soluble on expression in E. coli: not soluble
